Our source for the Kd, Steady State RU, and Steady State RU values is PMC7587234.

The target in the first experiment is FcγRIIIa (UniProt P08637). Description: SPR.
Sequence of UniProt P08637 (P08637 17-208): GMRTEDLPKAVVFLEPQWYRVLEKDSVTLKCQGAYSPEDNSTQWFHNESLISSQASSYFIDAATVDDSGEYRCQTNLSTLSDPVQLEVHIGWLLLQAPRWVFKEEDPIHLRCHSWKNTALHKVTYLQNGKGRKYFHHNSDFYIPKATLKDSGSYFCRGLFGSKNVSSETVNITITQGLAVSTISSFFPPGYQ
Settings: not given
For “mAb1 (bevacizumab) with the LS Fc-backbone mutation (M428L/N434S) (antibody)”, the equilibrium dissociation constant (Kd) was found to be 307 nM.

In turn, “mAb1 (bevacizumab) with the YD Fc-backbone mutation (M252Y/T256D) (antibody)” yielded a Kd of 645 nM.

“mAb1 (bevacizumab) with the DW Fc-backbone mutation (T256D/T307W) (antibody)” displayed a Kd of 329 nM.

On to “mAb1 (bevacizumab), wild-type Fc (antibody)”, for which the dissociation constant (Kd) was 377 nM.

The substance adalimumab, wild-type Fc (antibody) gave an equilibrium dissociation constant (Kd) of 194 nM.

The substance “mAb1 (bevacizumab) with the DQ Fc-backbone mutation (T256D/T307Q) (antibody)” showed a Kd of 361 nM.

As for “adalimumab with the LS Fc-backbone mutation (M428L/N434S) (antibody)”, the Kd turned out to be 196 nM.

Another experiment deals with biotinylated cynomolgus FcRn, p51 subunit with β2-m (cynomolgus monkey) (UniProt Q8SPV9). Description: SPR.
Sequence of UniProt Q8SPV9 (Q8SPV9 24-297, chain 1 of 2): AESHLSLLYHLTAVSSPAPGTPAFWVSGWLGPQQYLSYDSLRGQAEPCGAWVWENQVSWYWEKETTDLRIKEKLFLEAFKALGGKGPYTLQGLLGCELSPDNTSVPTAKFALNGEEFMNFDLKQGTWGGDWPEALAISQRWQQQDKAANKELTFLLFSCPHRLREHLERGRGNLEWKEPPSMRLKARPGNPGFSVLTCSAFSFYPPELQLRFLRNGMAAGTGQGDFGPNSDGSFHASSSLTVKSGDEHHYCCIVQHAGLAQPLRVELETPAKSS
Sequence of UniProt Q8SPV9 (Q8SPW0 21-119, chain 2 of 2, further chain): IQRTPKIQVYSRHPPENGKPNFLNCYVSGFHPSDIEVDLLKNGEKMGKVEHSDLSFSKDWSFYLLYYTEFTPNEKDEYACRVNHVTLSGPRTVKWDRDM
Settings: not given
Turning to “mAb1 (bevacizumab) with the LS Fc-backbone mutation (M428L/N434S) (antibody)”, the Kd was 210 nM and the Steady State RU, at pH 7.4 amounted to 38.3 RU.

The substance “mAb1 (bevacizumab) with the YD Fc-backbone mutation (M252Y/T256D) (antibody)” returned a Kd of 120 nM and a Steady State RU, at pH 7.4 of 22.2 RU.

“mAb1 (bevacizumab) with the DW Fc-backbone mutation (T256D/T307W) (antibody)” yielded an equilibrium dissociation constant (Kd) of 99 nM and a Steady State RU, at pH 7.4 of 14.8 RU.

“mAb1 (bevacizumab), wild-type Fc (antibody)” yielded a Kd of 1440 nM.

adalimumab, wild-type Fc (antibody) had a Kd of 1100 nM.

Substance “mAb1 (bevacizumab) with the DQ Fc-backbone mutation (T256D/T307Q) (antibody)” returned a Kd of 110 nM and a Steady State RU, at pH 7.4 of 10.9 RU.

Substance “adalimumab with the LS Fc-backbone mutation (M428L/N434S) (antibody)” came in with a Kd of 48 nM and a Steady State RU, at pH 7.4 of 55.7 RU.

The target of a further experiment is biotinylated human neonatal Fc receptor (hFcRn), p51 subunit with β2-m (human) (UniProt P55899). Nature of the experiment: SPR.
Sequence of UniProt P55899 (P55899 24-297, chain 1 of 2): as the sequence (Q8SPV9 24-297, chain 1 of 2) above, with D39N, Q44E, S99G, G189S, N190S, M217L, T269S counted along it
Sequence of UniProt P55899 (P61769 21-119, chain 2 of 2, further chain): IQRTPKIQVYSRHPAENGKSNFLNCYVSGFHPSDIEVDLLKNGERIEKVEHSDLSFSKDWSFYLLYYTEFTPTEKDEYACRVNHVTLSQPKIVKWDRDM
Settings: not given
In turn, “mAb1 (bevacizumab) with the LS Fc-backbone mutation (M428L/N434S) (antibody)” returned a Steady State RU, at pH 7.4 of 44 RU.

As for “mAb1 (bevacizumab) with the YD Fc-backbone mutation (M252Y/T256D) (antibody)”, the Kd came out at 86 nM and the Steady State RU, at pH 7.4 amounted to 27 RU.

Regarding “mAb1 (bevacizumab) with the DW Fc-backbone mutation (T256D/T307W) (antibody)”, the Kd was 126 nM and the Steady State RU, at pH 7.4 is 18 RU.

In turn, “mAb1 (bevacizumab), wild-type Fc (antibody)” displayed a Kd of 500 nM.

adalimumab, wild-type Fc (antibody) showed an equilibrium dissociation constant (Kd) of 645 nM.

Consider “mAb1 (bevacizumab) with the DQ Fc-backbone mutation (T256D/T307Q) (antibody)”, for which the Kd came out at 89 nM and the Steady State RU, at pH 7.4 came out at 14 RU.

For “adalimumab with the LS Fc-backbone mutation (M428L/N434S) (antibody)”, the Kd came to 500 nM and the Steady State RU, at pH 7.4 stood at 68.4 RU.

The target in a further experiment is cynomolgus monkey neonatal Fc receptor (cyno FcRn), soluble heterodimer (UniProt Q8SPV9+Q8SPW0). Nature of the experiment: SPR. Conditions: pH 7.4; not stated (pH 7.4).
For “adalimumab WT Fc (labelled mAb2 in Table 2, mAb3 in Tables 1 and 3)”, the Steady State RU worked out at 2.5 RU.

bevacizumab (mAb1) WT Fc yielded a Steady State RU of 1.3 RU.

Consider bevacizumab (mAb1) DW T256D;T307W, for which the Steady State RU came to 14.8 RU.

For the substance bevacizumab (mAb1) YD M252Y;T256D, the Steady State RU is 22.2 RU.

Turning to bevacizumab (mAb1) DQ T256D;T307Q, the Steady State RU came to 10.9 RU.

In turn, bevacizumab (mAb1) LS M428L;N434S had a Steady State RU of 38.3 RU.

The substance adalimumab LS M428L;N434S returned a Steady State RU of 55.7 RU.

The next experiment concerns the target human neonatal Fc receptor (hFcRn), soluble heterodimer (UniProt P55899+P61769). Description: SPR. The conditions noted are these: pH 7.4; not stated (pH 7.4).
“adalimumab WT Fc (labelled mAb2 in Table 2, mAb3 in Tables 1 and 3)” yielded a Steady State RU of 2.7 RU.

With bevacizumab (mAb1) WT Fc, the Steady State RU came out at 1.3 RU.

In turn, bevacizumab (mAb1) DW T256D;T307W came in with a Steady State RU of 18 RU.

bevacizumab (mAb1) YD M252Y;T256D had a Steady State RU of 27 RU.

bevacizumab (mAb1) DQ T256D;T307Q came in with a Steady State RU of 14 RU.

The substance bevacizumab (mAb1) LS M428L;N434S displayed a Steady State RU of 44 RU.

Take adalimumab LS M428L;N434S: the Steady State RU came out at 68.4 RU.

For orientation: Kd means the constant that tells how readily two partners part at equilibrium.
